Values of other authors in PMC5371383.

Assays:
MC1R (Gallus gallus) = MC1R (Gallus gallus) (UniProt P55167)
MC1R (Homo sapiens) = MC1R (Homo sapiens) (UniProt Q01726)
Sequence of UniProt Q01726 (Q01726 whole entry): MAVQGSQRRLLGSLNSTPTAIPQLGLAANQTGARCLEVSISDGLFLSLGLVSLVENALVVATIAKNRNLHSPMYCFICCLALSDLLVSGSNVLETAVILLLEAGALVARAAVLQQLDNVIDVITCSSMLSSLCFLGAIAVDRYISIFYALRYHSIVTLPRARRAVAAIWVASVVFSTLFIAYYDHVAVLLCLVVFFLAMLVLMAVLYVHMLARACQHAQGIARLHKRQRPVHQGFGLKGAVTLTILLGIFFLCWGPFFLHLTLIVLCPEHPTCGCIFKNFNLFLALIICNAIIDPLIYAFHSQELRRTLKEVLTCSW

Sequence of UniProt P55167 (P55167 whole entry): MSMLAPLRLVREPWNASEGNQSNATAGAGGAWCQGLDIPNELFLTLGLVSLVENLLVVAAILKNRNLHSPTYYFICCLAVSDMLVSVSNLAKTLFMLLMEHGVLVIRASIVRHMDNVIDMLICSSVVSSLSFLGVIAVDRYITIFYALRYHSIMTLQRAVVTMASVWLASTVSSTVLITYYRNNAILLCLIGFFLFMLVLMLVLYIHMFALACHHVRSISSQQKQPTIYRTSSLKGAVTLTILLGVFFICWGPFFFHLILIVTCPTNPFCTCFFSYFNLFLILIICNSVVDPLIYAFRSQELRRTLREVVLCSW

Kd (MC1R (Gallus gallus)): 363 nM | Kd (MC1R (Homo sapiens)): 0.21 nM
Substance: α-MSH (from UniProt P01189)
